Molecular target: T1, human CD300a-Fc (human, UniProt Q9UGN4 18-180)
T1 construct: extracellular domain; Made from a chimeric cDNA as in Document 25; not shown: human IgG1 Fc
T1 sequence (looked up): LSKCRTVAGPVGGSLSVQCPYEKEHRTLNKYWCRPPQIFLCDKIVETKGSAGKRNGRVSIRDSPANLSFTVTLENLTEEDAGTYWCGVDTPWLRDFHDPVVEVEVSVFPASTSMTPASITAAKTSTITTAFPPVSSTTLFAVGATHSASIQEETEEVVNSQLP
Experiment: flow cytometry binding inhibition: human CD300a-Fc on apoptotic Jurkat cells with TX49 (binding of TX49 to CD300a-Fc shown by blocking)
Procedure: First, Jurkat cells (human T-cell line) were suspended in RPMI 1640 medium, and the resulting medium was irradiated with UV for 60 minutes to prepare apoptotic Jurkat cells.
Further, cytometry analysis was carried out under the same test conditions as in Reference Example 1B except that the “Jurkat cell-derived apoptotic cells” were used as apoptotic cells instead of the apoptotic cells derived from wild-type mouse thymocytes; “human CD300a-Fc” was used instead of the “mouse CD300a-Fc”; and “TX49” or “control human IgG1” was used instead of “TX41” (results: FIG. 2E “TX49” or “HuIgG1”). “TX49” is an anti-human CD300a antibody (monoclonal antibody), and blocks binding of CD300a to the ligand.

B1: Human CD300a monoclonal antibody TX49 (mouse IgG1) (antibody, V domains shown)
VH: EVQLQQSGAELVKPGASVKLSCKASGYTFTSYWMQWVKQRPGQGLEWIGEIDPSDSYTNYNQKFKGKATLTVDTSSSTTYMQLSSLTSEDSAVYYCARWGMAYGTSSYWYFDVWGTGTTVTVSS
VL: DCDIQMTQTTSSLSASLGDRVTISCRASQDISNYLNWYQQKPDGTVKLLIYYTSRLHSGVPSRFSGSGSGTDYSLTISNLEQEDIATYFCQQGNTLPWTFGGGTKLEIKR
notes: also called anti-human CD300a monoclonal antibody; anti-human CD300a antibody
B1: binds.

— patent publication US20150299332A1 (UNIVERSITY OF TSUKUBA, published 2015)
